The values that follow come from article PMC2893186 (BMC Structural Biology, 2010).

This data set deals with the molecule itself. Description: crystal structure; crystals grown from purified His-tagged ZHX2 HD2-3 (OPPF_2273), 20% PEG6000, 0.2 M LiCl, HEPES pH7; protein cleaved in the droplet, two molecules of HD2 in the asymmetric unit; 2.70 Å, data at 100 K.

B1: ZHX2 HD2 (homeodomain 2 of human zinc-fingers and homeoboxes 2), proteolytic fragment derived from OPPF_2273 (ZHX2 HD2-3) (domain or fragment)
chain: RKKTKEQIAHLKASFLQSQFPDDAEVYRLIEVTGLARSEIKKWFSDHRYRCQRGIVHI
notes: ZHX2 (zinc-fingers and homeoboxes 2), human; homeodomain 2; Expressed as construct OPPF_2273 (HD2-3, aa 444-582); HD2-HD3 was cleaved by proteolysis after purification and only HD2 crystallized; Cys494 lies in the fragment; Homodimer in the crystal, with helix I domain-swapped and a disulfide bridge between the Cys494 of the two subunits; the deposited entry would show the ordered residues; also …
The term stoichiometry N denotes a count of units in the complex or per binding partner. For B1, the “stoichiometry N” value came to 2.
